Laboratory results from the supplement of paper PMC9732359.
± gives the uncertainty stated by the source.

Test: protein stability index of a GFP-peptide fusion (yeast GPS) (PSI 1-4); higher = more stable; sorted into four equal gates, so the index is relative within each strain
Outline: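 Yeast carrying a pooled library were grown to mid-log phase in leucine-free medium. Each library plasmid expresses Cherry and has a tiled 17-residue yeast protein peptide fused downstream of GFP. Cells were sorted into four equal gates by GFP/Cherry ratio, and plasmids from each gate were PCR-amplified, Illumina-sequenced and assigned to strains by barcode. Summing, across gates, the read frequency times the gate number gave each peptide's protein stability index.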

SGGSVNLYHVTEDGWIY [PRE2]
protein stability index (doa10∆): 2.85 ± 0.12
protein stability index (pdr5∆): 3.16 ± 0.15
protein stability index (san1∆): 3 ± 0.087
protein stability index (ubr1∆): 3.04 ± 0.089

FMLILALFVFYSPNTLG [COB]
protein stability index (doa10∆): 2.28 ± 0.074
protein stability index (pdr5∆): 2.15 ± 0.057
protein stability index (san1∆): 2.46 ± 0.056
protein stability index (ubr1∆): 2.52 ± 0.053

AQQLVGVYKRDNRTKST [SMC4]
protein stability index (doa10∆): 3.11 ± 0.2
protein stability index (pdr5∆): 3.04 ± 0.2

HYVVLDTNVVLQAIDLL [DIS3]
protein stability index (doa10∆): 2.53 ± 0.093
protein stability index (pdr5∆): 2.49 ± 0.073
protein stability index (san1∆): 2.23 ± 0.1
protein stability index (ubr1∆): 2.39 ± 0.064

TRAQYLAFAKLVHSEYL [SRP68]
protein stability index (doa10∆): 1.58 ± 0.08
protein stability index (pdr5∆): 1.87 ± 0.063
protein stability index (san1∆): 1.47 ± 0.094
protein stability index (ubr1∆): 1.79 ± 0.052

FYLMVSSLSFGPENALN [YJL039C/NUP192]
protein stability index (doa10∆): 1.68 ± 0.048
protein stability index (pdr5∆): 1.37 ± 0.047
protein stability index (san1∆): 1.39 ± 0.12
protein stability index (ubr1∆): 1.31 ± 0.051

IRNARSIRAEAVAASST [POP1]
protein stability index (doa10∆): 3.13 ± 0.24
protein stability index (pdr5∆): 2.54 ± 0.23
protein stability index (san1∆): 2.5 ± 0.14
protein stability index (ubr1∆): 2.19 ± 0.1

ADINSNRLSNPQKNLLL [YOR098C/NUP1]
protein stability index (doa10∆): 3.11 ± 0.069
protein stability index (pdr5∆): 3 ± 0.07
protein stability index (san1∆): 2.81 ± 0.065
protein stability index (ubr1∆): 2.88 ± 0.082

MPLKILLATKQHDSSAN [CSN12]
protein stability index (doa10∆): 2.48 ± 0.076
protein stability index (pdr5∆): 1.97 ± 0.044
protein stability index (san1∆): 2.09 ± 0.063
protein stability index (ubr1∆): 2.27 ± 0.044

AAVIALGFVLLRDYTTV [RPN2]
protein stability index (doa10∆): 1.59 ± 0.066
protein stability index (pdr5∆): 1.21 ± 0.081
protein stability index (san1∆): 1.22 ± 0.082
protein stability index (ubr1∆): 1.27 ± 0.048

PFSFSSATSTTEQTKSK [YLR335W/NUP2]
protein stability index (doa10∆): 2.99 ± 0.06
protein stability index (pdr5∆): 2.99 ± 0.058
protein stability index (san1∆): 2.85 ± 0.075
protein stability index (ubr1∆): 2.86 ± 0.054

RIQNRVKLGLNSKMPTR [PRP8]
protein stability index (doa10∆): 2.48 ± 0.16
protein stability index (pdr5∆): 2.92 ± 0.1
protein stability index (san1∆): 2.74 ± 0.13
protein stability index (ubr1∆): 2.91 ± 0.13

FTIRGFKQKLNELLKCK [MTW1]
protein stability index (doa10∆): 3.05 ± 0.059
protein stability index (pdr5∆): 2.92 ± 0.073
protein stability index (san1∆): 2.93 ± 0.064
protein stability index (ubr1∆): 3.17 ± 0.046

SYDKTVKLWEEDPDQEE [YGL100W/SEH1]
protein stability index (doa10∆): 3.32 ± 0.12
protein stability index (pdr5∆): 3.21 ± 0.079
protein stability index (san1∆): 3.3 ± 0.044
protein stability index (ubr1∆): 3.29 ± 0.06

LANLIRDALRNIKNTNE [RRP6]
protein stability index (doa10∆): 2.37 ± 0.045
protein stability index (pdr5∆): 2.51 ± 0.055
protein stability index (san1∆): 2.63 ± 0.055
protein stability index (ubr1∆): 2.49 ± 0.036

EDETLRRIKEAEENLKK [YIL149C/MLP2]
protein stability index (doa10∆): 3.54 ± 0.23
protein stability index (pdr5∆): 3.54 ± 0.15
protein stability index (san1∆): 3.26 ± 0.076
protein stability index (ubr1∆): 3.69 ± 0.13

AKPFQVTKEYFQDVYDL [FAS1]
protein stability index (doa10∆): 2.96 ± 0.12
protein stability index (pdr5∆): 2.81 ± 0.074
protein stability index (san1∆): 2.4 ± 0.088
protein stability index (ubr1∆): 2.72 ± 0.063

QLAVKIINKVLDYQETY [YJL039C/NUP192]
protein stability index (doa10∆): 1.94 ± 0.11
protein stability index (pdr5∆): 2.73 ± 0.096
protein stability index (san1∆): 2.51 ± 0.086

SFSFLNRADGTGEAQVD [YLR335W/NUP2]
protein stability index (pdr5∆): 3.39 ± 0.23
protein stability index (ubr1∆): 2.78 ± 0.29

SQASSDLGETFRGIIRS [CSL4]
protein stability index (doa10∆): 3.17 ± 0.14
protein stability index (pdr5∆): 2.96 ± 0.081
protein stability index (san1∆): 3.3 ± 0.096
protein stability index (ubr1∆): 3.24 ± 0.073

ITYALSGYVRSRGESDD [RPS21B]
protein stability index (doa10∆): 1.74 ± 0.075
protein stability index (pdr5∆): 2.81 ± 0.11
protein stability index (san1∆): 2.44 ± 0.092
protein stability index (ubr1∆): 2.84 ± 0.058

SKWFNLEKIHSIEVQSL [SWI3]
protein stability index (doa10∆): 2.67 ± 0.24
protein stability index (pdr5∆): 2.45 ± 0.13
protein stability index (san1∆): 1.59 ± 0.14
protein stability index (ubr1∆): 2.72 ± 0.12

IDQDIHGIVFQHPFPLA [SSN2]
protein stability index (doa10∆): 2.13 ± 0.044
protein stability index (pdr5∆): 2.25 ± 0.051
protein stability index (san1∆): 2.24 ± 0.059
protein stability index (ubr1∆): 2.64 ± 0.032

NVVEVMDMNEIEDKENS [RPT5]
protein stability index (doa10∆): 3.02 ± 0.087
protein stability index (pdr5∆): 2.58 ± 0.066
protein stability index (san1∆): 2.26 ± 0.067
protein stability index (ubr1∆): 2.71 ± 0.059

MNIKPVQKQTRAGQRTR [RPS2]
protein stability index (doa10∆): 2.67 ± 0.1
protein stability index (pdr5∆): 2.81 ± 0.11
protein stability index (san1∆): 1.92 ± 0.089
protein stability index (ubr1∆): 2.58 ± 0.073

MKYIQTEQQIEIPEGVT [RPL9B]
protein stability index (doa10∆): 2.4 ± 0.059
protein stability index (pdr5∆): 2.8 ± 0.063
protein stability index (san1∆): 2.39 ± 0.064
protein stability index (ubr1∆): 2.64 ± 0.053

ATRTLVASIQNDPSAEV [YCG1]
protein stability index (pdr5∆): 3.41 ± 0.16
protein stability index (san1∆): 2.79 ± 0.27

IRVLFKENGQLIGAATK [SEC65]
protein stability index (doa10∆): 1.97 ± 0.068
protein stability index (pdr5∆): 2.12 ± 0.11
protein stability index (san1∆): 2.17 ± 0.12
protein stability index (ubr1∆): 2.38 ± 0.079

TKQIQSVRIDGRKVLQK [SIR4]
protein stability index (doa10∆): 2.32 ± 0.06
protein stability index (pdr5∆): 2.48 ± 0.055
protein stability index (san1∆): 2.03 ± 0.069
protein stability index (ubr1∆): 2.02 ± 0.04

ADAGIELVDMAGAGEAN [MTR3]
protein stability index (doa10∆): 2.76 ± 0.11
protein stability index (pdr5∆): 2.69 ± 0.084
protein stability index (san1∆): 2.32 ± 0.1
protein stability index (ubr1∆): 2.9 ± 0.086

MNAGGLFGAKPQNTTAT [YGR119C/NUP57]
protein stability index (doa10∆): 2.43 ± 0.049
protein stability index (pdr5∆): 3.29 ± 0.059
protein stability index (san1∆): 3.35 ± 0.058
protein stability index (ubr1∆): 2.72 ± 0.059

YSPNTLGHPDNYIPGNP [COB]
protein stability index (doa10∆): 2.52 ± 0.11
protein stability index (pdr5∆): 2.27 ± 0.088
protein stability index (san1∆): 2.9 ± 0.064
protein stability index (ubr1∆): 2.43 ± 0.047

ILSKKWGFTNLDRPEYL [RPL10]
protein stability index (ubr1∆): 2.89 ± 0.26

LYDHWDKYHEQWIKFLL [SSN8]
protein stability index (doa10∆): 3.16 ± 0.2
protein stability index (pdr5∆): 3.1 ± 0.13
protein stability index (san1∆): 2.84 ± 0.071
protein stability index (ubr1∆): 2.72 ± 0.054

FDFIKDNETPSKKTSPK [YOR098C/NUP1]
protein stability index (doa10∆): 2.25 ± 0.051
protein stability index (pdr5∆): 2.87 ± 0.043
protein stability index (san1∆): 2.6 ± 0.063
protein stability index (ubr1∆): 2.96 ± 0.038

GSAITGPVGKECADLWP [RPL23A]
protein stability index (doa10∆): 2.44 ± 0.11
protein stability index (pdr5∆): 2.75 ± 0.085
protein stability index (san1∆): 2.83 ± 0.067
protein stability index (ubr1∆): 2.64 ± 0.064

KATLELLKLIEPYVAYG [RPL7A]
protein stability index (doa10∆): 2.28 ± 0.078
protein stability index (pdr5∆): 3.24 ± 0.083
protein stability index (san1∆): 3.3 ± 0.034
protein stability index (ubr1∆): 2.79 ± 0.047

RASIEYYVGQVMRNNES [DIS3]
protein stability index (doa10∆): 3.22 ± 0.067
protein stability index (pdr5∆): 3.21 ± 0.091
protein stability index (san1∆): 3.21 ± 0.053
protein stability index (ubr1∆): 3.26 ± 0.063

PRSDAQAIKEASYVNIP [RPS0A]
protein stability index (doa10∆): 2.88 ± 0.058
protein stability index (pdr5∆): 2.76 ± 0.048
protein stability index (san1∆): 2.71 ± 0.058
protein stability index (ubr1∆): 2.47 ± 0.034

GGGHVSQVYAIRQAIAK [RPS16A]
protein stability index (doa10∆): 2.63 ± 0.05
protein stability index (pdr5∆): 2.85 ± 0.045
protein stability index (san1∆): 2.75 ± 0.053
protein stability index (ubr1∆): 2.62 ± 0.043

SPSYSPTSPAYSPTSPS [RPO21]
protein stability index (doa10∆): 2.93 ± 0.05
protein stability index (pdr5∆): 2.85 ± 0.052
protein stability index (san1∆): 2.81 ± 0.048
protein stability index (ubr1∆): 3.08 ± 0.032

LGKAQNWAKFTATASLG [RPN2]
protein stability index (doa10∆): 2.55 ± 0.059
protein stability index (pdr5∆): 2.56 ± 0.059
protein stability index (san1∆): 2.18 ± 0.069
protein stability index (ubr1∆): 2.28 ± 0.065

EEGRAIPGEYITYALSG [RPS21B]
protein stability index (doa10∆): 2.99 ± 0.073
protein stability index (pdr5∆): 3.1 ± 0.11
protein stability index (san1∆): 2.88 ± 0.078
protein stability index (ubr1∆): 2.96 ± 0.044

WKDFTVEIAFLFRAIYL [YCG1]
protein stability index (doa10∆): 2.36 ± 0.1
protein stability index (pdr5∆): 2.36 ± 0.064
protein stability index (san1∆): 2.48 ± 0.1
protein stability index (ubr1∆): 2.26 ± 0.071

ALRDVKNNNNANNNGSN [GAL11]
protein stability index (doa10∆): 3.33 ± 0.095
protein stability index (pdr5∆): 2.95 ± 0.14
protein stability index (san1∆): 3.13 ± 0.12
protein stability index (ubr1∆): 3.41 ± 0.11

ERFQVMVLRKQKRYTVK [RPL14A]
protein stability index (doa10∆): 2.37 ± 0.12
protein stability index (pdr5∆): 2.19 ± 0.1
protein stability index (san1∆): 2.21 ± 0.24
protein stability index (ubr1∆): 2.71 ± 0.11

GCLVKREDLNKAEYVDQ [RPO31]
protein stability index (pdr5∆): 3.13 ± 0.21

FPRDGKAPEAEQVLSAA [RPL13B]
protein stability index (doa10∆): 3.3 ± 0.093
protein stability index (pdr5∆): 2.9 ± 0.086
protein stability index (san1∆): 2.9 ± 0.069
protein stability index (ubr1∆): 3 ± 0.045

FGNSLSNTVNANNYSSN [YDL088C/ASM4]
protein stability index (doa10∆): 2.94 ± 0.084
protein stability index (pdr5∆): 3 ± 0.09
protein stability index (san1∆): 3.08 ± 0.072
protein stability index (ubr1∆): 3.18 ± 0.056

VEAQSHRLTLEDPVTVE [PRE6]
protein stability index (doa10∆): 3.23 ± 0.15
protein stability index (pdr5∆): 3.88 ± 0.25

IRALQPKLKEGALHFVQ [YIL149C/MLP2]
protein stability index (doa10∆): 2.77 ± 0.074
protein stability index (pdr5∆): 2.06 ± 0.077
protein stability index (san1∆): 2.17 ± 0.068
protein stability index (ubr1∆): 2.69 ± 0.071

ISQKLTNVNVKIKDVQQ [SMC3]
protein stability index (doa10∆): 1.97 ± 0.12
protein stability index (pdr5∆): 2.34 ± 0.064
protein stability index (san1∆): 2.27 ± 0.14
protein stability index (ubr1∆): 2.32 ± 0.19

QQQMANNNGNPGTTSTG [GAL11]
protein stability index (doa10∆): 3.13 ± 0.11
protein stability index (pdr5∆): 3.44 ± 0.065
protein stability index (san1∆): 3.26 ± 0.049
protein stability index (ubr1∆): 3.31 ± 0.043

VLITSYEMVIREKNALK [ISW2]
protein stability index (doa10∆): 2.33 ± 0.043
protein stability index (pdr5∆): 2.53 ± 0.053
protein stability index (san1∆): 2.37 ± 0.045
protein stability index (ubr1∆): 2.78 ± 0.043

GTPPMLHQRTHKQVYPL [DSN1]
protein stability index (doa10∆): 2.52 ± 0.1
protein stability index (pdr5∆): 2.87 ± 0.069
protein stability index (san1∆): 2.77 ± 0.071
protein stability index (ubr1∆): 2.93 ± 0.056
